Measured values published in patent US20220389118A1 (Chugai, published 2022).
Residue numbers refer to the chain shown, from its start. One block for each binder: values may come before it.

Assays:
[1] = molecular target: T1, human FcγRIIb extracellular domain with C-terminal His tag (human, UniProt P31994 43-217); experiment: SPR (Biacore), antibody captured, FcγR as analyte
T1 construct: extracellular domain; also called FcgRIIb
T1 sequence (looked up): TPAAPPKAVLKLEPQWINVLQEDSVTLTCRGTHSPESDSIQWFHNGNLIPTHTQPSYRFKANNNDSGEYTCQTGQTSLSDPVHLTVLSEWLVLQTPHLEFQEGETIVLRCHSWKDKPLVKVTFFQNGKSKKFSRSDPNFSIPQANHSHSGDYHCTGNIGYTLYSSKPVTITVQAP

[2] = molecular target: T2, human FcγRIa extracellular domain with C-terminal His tag (human, UniProt P12314 16-292); experiment: SPR (Biacore)
T2 construct: extracellular domain

[3] = molecular target: T3, human FcγRIIa type R extracellular domain with C-terminal His tag (human, UniProt P12318 34-217); experiment: SPR (Biacore)
T3 construct: extracellular domain; also called FcγRIIaR; FcγRIIa(R)
T3 sequence (looked up): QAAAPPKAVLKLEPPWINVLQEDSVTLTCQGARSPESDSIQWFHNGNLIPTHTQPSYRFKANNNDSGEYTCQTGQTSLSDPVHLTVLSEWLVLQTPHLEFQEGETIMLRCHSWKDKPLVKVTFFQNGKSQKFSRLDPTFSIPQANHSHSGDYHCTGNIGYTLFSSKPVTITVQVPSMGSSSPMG

[4] = molecular target: T4, human FcγRIIa type H extracellular domain with C-terminal His tag (human, UniProt P12318 34-217); experiment: SPR (Biacore)
T4 construct: extracellular domain; also called FcγRIIaH; FcγRIIa(H)
T4 sequence (looked up): T3 sequence (looked up) with R134H

[5] = molecular target: T5, human FcγRIIb extracellular domain with C-terminal His tag (human, UniProt P31994 43-217); experiment: SPR (Biacore)
T5 construct: extracellular domain
T5 sequence (looked up): T1 sequence (looked up)

[6] = molecular target: T5, human FcγRIIb extracellular domain with …; experiment: SPR (Biacore), ratio of KDs
[7] = molecular target: T3, human FcγRIIa type R extracellular …; experiment: SPR (Biacore), parent IL6R-B3/IL6R-L
[8] = molecular target: T5, human FcγRIIb extracellular domain with …; experiment: SPR (Biacore), parent IL6R-B3/IL6R-L

T2 sequence (P12314 16-292): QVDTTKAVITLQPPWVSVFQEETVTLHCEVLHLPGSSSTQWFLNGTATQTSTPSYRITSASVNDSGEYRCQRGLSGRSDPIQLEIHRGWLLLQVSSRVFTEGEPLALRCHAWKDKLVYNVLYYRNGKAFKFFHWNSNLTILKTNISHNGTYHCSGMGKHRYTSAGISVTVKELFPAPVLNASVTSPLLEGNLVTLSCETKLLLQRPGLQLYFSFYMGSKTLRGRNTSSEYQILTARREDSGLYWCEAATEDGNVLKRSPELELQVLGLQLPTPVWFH

KD(IIb) of parent polypeptide/KD(IIb) of altered polypeptide [1]: 2.6 fold vs IL6R-B3/IL6R-L
B1: IL6R-BP142/IL6R-L (antibody, human IgG1, kappa)
heavy: QVQLQESGPGLVKPSETLSLTCAVSGHSISHDHAWSWVRQPPGEGLEWIGFISYSGITNYNPSLQGRVTISRDNSKNTLYLQMNSLRAEDTAVYYCARSLARTTAMDYWGEGTLVTVSSASTKGPSVFPLAPSSKSTSGGTAALGCLVKDYFPEPVTVSWNSGALTSGVHTFPAVLQSSGLYSLSSVVTVPSSSLGTQTYICNVNHKPSNTKVDKKVEPKSCDKTHTCPPCPAPELLGGDSVFLFPPKPKDTLMISRTPEVTCVVVDVSHEDPEVKFNWYVDGVEVHNAKTKPREEQYNSTYRVVSVLTVLHQDWLNGKEYKCKVSNNALPAPIEKTISKAKGQPREPQVYTLPPSRDELTKNQVSLTCLVKGFYPSDIAVEWESNGQPENNYKTTPPVLDSDGSFFLYSKLTVDKSRWQQGNVFSCSVMHEALHNHYTQESLSLSP
light: not shown
notes: IgG1 type

KD(IIb) of parent polypeptide/KD(IIb) of altered polypeptide [1]: 2.8 fold vs IL6R-B3/IL6R-L
B2: IL6R-BP121/IL6R-L (antibody, human IgG1, kappa)
heavy: B1 heavy with N328Q
light: not shown
notes: IgG1 type

Kd [2]: 64 nM | Kd [3]: 330 nM | Kd [4]: 5600 nM | Kd [5]: 8.4 nM | KD(IIaH)/KD(IIb) [6]: 667 | KD(IIaR)/KD(IIb) [6]: 39 | KD(IIaR) parent/KD(IIaR) altered polypeptide [7]: 3.4 | KD(IIb) parent/KD(IIb) altered polypeptide [8]: 369
B3: IL6R-BP539/IL6R-L (antibody, human IgG1, kappa)
heavy: B1 heavy with G239D, V266I, S269G, H270E, P273G, E274P, Y298D, N328K, A332R
light: not shown
notes: copies: 2 + 2

Kd [2]: 2.1 nM | Kd [3]: 110 nM | Kd [4]: 1300 nM | Kd [5]: 3.7 nM | KD(IIaH)/KD(IIb) [6]: 352 | KD(IIaR)/KD(IIb) [6]: 29.5 | KD(IIaR) parent/KD(IIaR) altered polypeptide [7]: 10.1 | KD(IIb) parent/KD(IIb) altered polypeptide [8]: 840
B4: IL6R-BP502/IL6R-L (antibody, human IgG1, kappa)
heavy: B1 heavy with E235D, G239D, V266I, S269A, H270E, P273G, Y298D, N328K, A329G, A332R
light: not shown
notes: copies: 2 + 2

Kd [2]: 5.3 nM | Kd [3]: 120 nM | Kd [4]: 2200 nM | Kd [5]: 3 nM | KD(IIaH)/KD(IIb) [6]: 724 | KD(IIaR)/KD(IIb) [6]: 38.8 | KD(IIaR) parent/KD(IIaR) altered polypeptide [7]: 9.3 | KD(IIb) parent/KD(IIb) altered polypeptide [8]: 1020
B5: IL6R-BP491/IL6R-L (antibody, human IgG1, kappa)
heavy: B1 heavy with G239D, V266I, S269A, H270E, P273G, Y298D, N328K, A332R
light: not shown
notes: also called IL6R-491/IL6R-L; copies: 2 + 2

Kd [2]: 7.7 nM | Kd [3]: 120 nM | Kd [4]: 2600 nM | Kd [5]: 4.1 nM | KD(IIaH)/KD(IIb) [6]: 634 | KD(IIaR)/KD(IIb) [6]: 29.3 | KD(IIaR) parent/KD(IIaR) altered polypeptide [7]: 9.2 | KD(IIb) parent/KD(IIb) altered polypeptide [8]: 756
B6: IL6R-BP533/IL6R-L (antibody, human IgG1, kappa)
heavy: B1 heavy with E235D, G239D, V266I, S269G, H270E, P273G, Y298D, N328K, A332R, P398L
light: not shown
notes: copies: 2 + 2

Kd [2]: 8 nM | Kd [4]: 2300 nM
B7: IL6R-BP554/IL6R-L (antibody, human IgG1, kappa)
heavy: B1 heavy with G239D, V266I, S269A, H270E, P273G, E274D, N328K, A332R
light: not shown
notes: copies: 2 + 2

Kd [2]: 55 nM | Kd [3]: 200 nM | Kd [4]: 3000 nM | Kd [5]: 5.3 nM | KD(IIaH)/KD(IIb) [6]: 568 | KD(IIaR)/KD(IIb) [6]: 38.6 | KD(IIaR) parent/KD(IIaR) altered polypeptide [7]: 5.4 | KD(IIb) parent/KD(IIb) altered polypeptide [8]: 587
B8: IL6R-BP538/IL6R-L (antibody, human IgG1, kappa)
heavy: B1 heavy with G239D, V266I, H270E, P273G, N328K, A332R
light: not shown
notes: copies: 2 + 2

KD(IIb) of parent polypeptide/KD(IIb) of altered polypeptide [1]: 3.9 fold vs IL6R-B3/IL6R-L | Kd [1]: 800 nM
B9: IL6R-BP136/IL6R-L (antibody, human IgG1, kappa)
heavy: B1 heavy with N328A
light: not shown
notes: IgG1 type

Kd [2]: 1.3 nM | Kd [3]: 43 nM | Kd [4]: 870 nM | Kd [5]: 1 nM | KD(IIaH)/KD(IIb) [6]: 870 | KD(IIaR)/KD(IIb) [6]: 42.8 | KD(IIaR) parent/KD(IIaR) altered polypeptide [7]: 25.7 | KD(IIb) parent/KD(IIb) altered polypeptide [8]: 3100
B10: IL6R-BP489/IL6R-L (antibody, human IgG1, kappa)
heavy: B1 heavy with E235D, G239D, V266I, S269A, H270E, P273G, Y298D, N328K, A332R, P398M
light: not shown
notes: copies: 2 + 2

Kd [2]: 1.2 nM | Kd [3]: 470 nM | Kd [4]: 3700 nM | Kd [5]: 18 nM | KD(IIaH)/KD(IIb) [6]: 201 | KD(IIaR)/KD(IIb) [6]: 25.5 | KD(IIaR) parent/KD(IIaR) altered polypeptide [7]: 2.3 | KD(IIb) parent/KD(IIb) altered polypeptide [8]: 168
B11: IL6R-BP496/IL6R-L (antibody, human IgG1, kappa)
heavy: B1 heavy with E235D, G239D, V266I, S269A, H270E, P273G, Y298D, N328K
light: not shown
notes: copies: 2 + 2

KD(IIb) of parent polypeptide/KD(IIb) of altered polypeptide [1]: 2.1 fold vs IL6R-B3/IL6R-L
B12: IL6R-BP912/IL6R-L (antibody, human IgG1, kappa)
heavy: B1 heavy with N328K, A332R
light: not shown
notes: IgG1 type
